Experimental data: article PMC11425648

Biological target: free UbcH8 (Ube2L6), GST tag removed (human)
Assay: SAXS; free UbcH8 (GST removed) at 300 μM, 10 °C, six 10-min frames; dimer crystal structure 1WZV fitted to the dummy atom model

stoichiometry N: 2
Substance: free UbcH8 (Ube2L6), GST tag removed (enzyme)
